Source: article PMC5548745, “Agonist-induced dimer dissociation as a macromolecular step in G protein-coupled receptor signaling” (Nature Communications, 2017)
Entries after “also recorded” stand apart in the source; their conditions may differ.

Tests used:
[1] = system: ERK1/2 phosphorylation in HEK293 cells; test: P-ERK1/2 immunoblot, HEK293 cells expressing SNAP-FZD6 constructs; format: cell-based; conditions: HEK293; C59 5 µM overnight
Experimental: Fig. 6 Relationship between FZD6 dimerization and phosphorylation of ERK1/2. a Mouse lung epithelial (MLE-12) cells were stimulated with WNT-5A (300 ng ml^−1) for 0, 2.5, 5, 10, 20 min. Cell lysates were analyzed for P-ERK1/2 and β-actin by immunoblotting. Additional information in Supplementary Fig. 6. b Bar graph summarizes three independent experiments. Densitometry data were normalized to the unstimulated control. […] Additional information in Supplementary Fig. 6. SNAP-FZD6 wt- and SNAP-FZD6 dimer mutant-induced ERK1/2 phosphorylation in the absence e and presence f of the porcupine inhibitor C59 (5 µM, overnight) were probed by immunoblotting for the SNAP-tag, P-ERK1/2, total ERK1/2 and β-actin. g The bar graph summarizes densitometry data of P-ERK1/2 normalized to total ERK1/2 from 6 different experiments. P = 0.0005; F (2, 15) = 13.08. ***P < 0.001. Empty vector transfection was used as mock. h Increasing amounts of plasmid of either SNAP-FZD6 wt or SNAP-FZD6 dimer mutant in the presence of C59 show a dose-dependent increase in P-ERK1/2 only with the dimer mutant. Data from three independent experiments for the dimer mutant were fit to a linear least-squares model (slope = 0.40 ± 0.10; R ^2 = 0.5943) and this line is shown superimposed. […] This dissociation-dependent activation can be evoked by agonist (WNT^high) or mutation of the dimer interface (symbolized by red stars). WNT^low conditions can be achieved in the presence of C59, which reduces FZD6 wt signaling
MLE-12 or HEK293 cells (ATCC) were plated in a 24- or 48-well plate at a density of 100,000 or 50,000 cells/well, respectively. After 24 h, cells were transfected using Lipofectamine 2000 according to the manufacturer’s instructions. Cells were stimulated (24 h post-transfection) with 300 ng ml^−1 recombinant carrier-free WNT-5A (CF WNT-5A; R&D Systems). Stimulation was stopped by the addition of lysis buffer (1% NP-40, 150 mM NaCl, 50 mM Tris/HCl pH 8). Lysates were sonicated and analyzed by 7.5 or 10% Mini-PROTEAN TGX precast polyacrylamide gels (Bio-Rad) and transferred to PVDF membranes using the Trans-Blot Turbo system (Bio-Rad). After blocking with 5% milk or BSA in TBS-T, membranes were incubated with primary antibodies in blocking buffer: mouse anti-β-actin (1:30,000; Sigma #A5441), rabbit anti-FZD6 (1:1000; NovusBio #NBP1-00830), rabbit anti-Phospho-p44/42 MAPK (ERK1/2) (Thr202/Tyr204) (1:1000; Cell Signaling Technology #9101 L), rabbit anti-p44/42 MAPK (ERK1/2) (1:1000; Cell Signaling Technology #9102), rabbit anti-Phospho-C-RAF (Ser338) (1:1000; Cell Signaling Technology #56A6), rabbit anti-SNAP tag (1:1000, New England Biolabs #P9310S), and rabbit anti-HA (1:4000, abcam #ab9110) overnight at 4 °C. Proteins were detected with horseradish peroxidase-conjugated secondary antibodies (goat anti-rabbit and goat anti-mouse (Pierce)) and Clarity Western ECL Blotting Substrate (Bio-Rad). All uncropped immunoblots can be found in the Supplementary Information.

porcupine = conditions: cited from earlier work
FZD6–FZD6 dimer [2] = test: dcFRAP of V5-FZD6-mCherry/FZD6-GFP (FZD6 dimerization); format: cell-based, human
How it was run: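 Live cells co-expressing V5-FZD6-mCherry and FZD6-GFP, surface V5 tag crosslinked with biotin-anti-V5 plus avidin in BE buffer at RT. Membrane areas photobleached, recovery imaged (488/561 nm) over 100 s; mobile fraction from background/bleach-corrected, pre-bleach-normalized intensity at 85-101 s. Cells with <40% crosslink-induced mobility reduction excluded.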

FZD6–FZD6 dimer [3] = test: dynamic FCCS of V5-FZD6-mCherry/FZD6-GFP; format: cell-based, human; conditions: HEK293; representative cell; G cc normalized to green auto-correlation amplitude; prior to stimulation
Experimental: HEK293 cells were grown over-night in Lab-Tek eight-well chamber-glass bottom slides (Nunc, Thermo Scientific, Langensbold, Germany) coated with matrigel. Data were acquired in 10 s intervals. Collection intervals containing abnormal fluorescence peaks (presumably resulting from aggregates or ROIs where the overall fluorescence was decaying, putatively due to membrane movements) were discarded from the overall analysis. The total included measurements time ranged from 20 to 80 s per cell. Measurements were only undertaken on cells where the fluorescence was well localized to the cell surface membrane, as judged by visual inspection in the wide-field and confocal mode. Autofluorescence, as well as fluorescence from both GFP and mCherry in the intracellular region was negligible. The number of fluorescent receptors assessed in each experiment varied from 10–1000 receptors per µm^2 in each HEK293 cell.
Dynamic FCCS measurements of WNT-dependent dissociation and re-association of FZD (Fig. 5c–e) were performed on an FCS/FCCS-equipped Zeiss 780 confocal microscope (Zeiss, Jena, Germany). The instrument details were the same as those of the Confocor 3 described above, with the exception that 561 nm excitation was used for excitation of mCherry, that GFP emission was detected from 500 to 550 nm, and that mCherry emission was detected from 600 to 690 nm. Experiments on cells were performed as described above, with each measurement point consisting of 3–6 measurements of 10 s each. […]
Assuming that M is FZD6-GFP (green) and N is FZD6-mCherry (red) and that all FZD6 form dimers, then the probability of finding a green–red FZD6 dimer is pgr=2×M×N/(M+N)(M+N-1)≈2×M×N/M+N^2=(2cgg+cgr)(2crr+cgr)/2cgg+cgr+crr^2 , where c gg, c gr, and c rr are the corresponding concentrations of the only green FZD6 dimers, the red and green FZD6 dimers and the only red FZD6 dimers. […] From the experiments, we determine the concentrations for c gg, c gr and c rr and compare the concentrations c gr with the c′gr for each cell to get an estimation of how close the model is to experimental data: cgr/c′gr=2cgr×(cgg+cgr+crr)/((2cgg+cgr)(2crr+cgr)) Analysis of the dynamic FCCS measurements of WNT-dependent dissociation and re-association of FZD6: Auto-correlation and cross-correlation curves were analyzed as described above and the amplitudes G g(0)−1, G r(0)−1, and G cc(0)−1 from each of the more than 300 measurements of 10 s duration were estimated by fitting to theoretical models. […]
With the settings described above for detection of emission, the crosstalk from the GFP channel to the mCherry channel, defined as the intensity detected in the mCherry channel divided by the intensity detected in the GFP channel, I r/I g, for a cell expressing only FZD-GFP, was 0.051 or 5.1 %. […]

FZD6–FZD6 dimer [4] = test: ratiometric FRET of C-terminally tagged FZD6 constructs; format: cell-based, human

Molecule	effect of C59 on FZD6 wt-induced P-ERK1/2 [1]	effect on endogenous WNT secretion (porcupine)	mobile fraction of FZD6-GFP before CL (FZD6–FZD6 dimer [2]; HEK293, basal, without biotinylated anti-V5/avidin crosslinking, 85–101 s, mean ± s.e.m., N = 21 ROIs) [%]	mobile fraction of FZD6-GFP after CL (FZD6–FZD6 dimer [2]; HEK293, with biotinylated anti-V5/avidin crosslinking, 85–101 s, mean ± s.e.m., N = 31 ROIs) [%]	dimeric fraction (FZD6–FZD6 dimer [2]; extrapolated from varying expression ratios, mCherry to GFP 1:1)	red molecules also green prior to WNT-5A (FZD6–FZD6 dimer [3]) [%]	energy transfer between fluorophores (FRET) (FZD6–FZD6 dimer [4])
Cc1cc(-c2ccc(CC(=O)Nc3ccc(-c4cccnc4)cc3)cc2)ccn1 [C59, 2-[4-(2-Methylpyridin-4-yl)phenyl]-N-[4-(pyridin-3-yl)phenyl]acetamide]	reduced to basal	blocks secretion of WNT proteins; also recorded: abrogates endogenous WNT secretion					
FZD6-GFP: GFP-tagged human FZD6 receptor construct (protein, left off: V5 (on the crosslinked copy), N-terminal, kept | mCherry (on the crosslinked copy), C-terminal, kept | GFP (on the other, mobile copy), C-terminal, kept, GFP-tagged human FZD6 receptor construct) HSLFTCEPITVPRCMKMAYNMTFFPNLMGHYDQSIAAVEMEHFLPLANLECSPNIETFLCKAFVPTCIEQIHVVPPCRKLCEKVYSDCKKLIDTFGIRWPEELECDRLQYCDETVPVTFDPHTEFLGPQKKTEQVQRDIGFWCPRHLKTSGGQGYKFLGIDQCAPPCPNMYFKSDELEFAKSFIGTVSIFCLCATLFTFLTFLIDVRRFRYPERPIIYYSVCYSIVSLMYFIGFLLGDSTACNKADEKLELGDTVVLGSQNKACTVLFMLLYFFTMAGTVWWVILTITWFLAAGRKWSCEAIEQKAVWFHAVAWGTPGFLTVMLLAMNKVEGDNISGVCFVGLYDLDASRYFVLLPLCLCVFVGLSLLLAGIISLNHVRQVIQHDGRNQEKLKKFMIRIGVFSGLYLVPLVTLLGCYVYEQVNRITWEITWVSDHCRQYHIPCPYQAKAKARPELALFMIKYLMTLIVGISAVFWVGSKKTCTEWAGFFKRNRKRDPISESRRVLQESCEFFLKHNSKVKHKKKHYKPSSHKLKVISKSMGTSTGATANHGTSAVAITSHDYLGQETLTEIQTSPETSMREVKADGASTPRLREQDCGEPASPAASISRLSGEQVDGKGQAGSVSESARSEGRISPKSDITDTGLAQSNNLQVPSSSEPSSLKGSTSLLVHPVSGVRKEQGGGCHSDT			80.8 ± 2.0	70.7 ± 2.4	around 25%	11	not able to detect energy transfer
